Sequences and labels used below:
B1: fluorescein-labeled α11.2 IQ domain peptide AAs 1644-1668, Q1655A (peptide)
peptide: not shown
modifications: fluorescein covalently linked to the N-terminal amino group
B2: fluorescein-labeled α11.2 IQ domain peptide AAs 1644-1668, K1647A (peptide)
peptide: not shown
modifications: fluorescein covalently linked to the N-terminal amino group
B3: fluorescein-labeled α11.2 IQ domain peptide AAs 1644-1668, Y1649A (peptide)
peptide: not shown
modifications: fluorescein covalently linked to the N-terminal amino group
B4: fluorescein-labeled α11.2 IQ domain peptide AAs 1644-1668, F1648A (peptide)
peptide: not shown
modifications: fluorescein covalently linked to the N-terminal amino group
B5: fluorescein-labeled α11.2 IQ domain peptide AAs 1644-1668, I1654A (peptide)
peptide: not shown
modifications: fluorescein covalently linked to the N-terminal amino group

The experiment addresses apo-calmodulin (UniProt P0DP23 1-149). Description: fluorescence polarisation.
B1 yielded a Kd of 22.3 µM.

B2 registered a Kd of 44.2 µM. B3 registered a dissociation constant (Kd) of 61.9 µM. Molecule B4 registered a dissociation constant Kd of 32.4 µM. The molecule B5 registered a Kd of 141 µM.

These data come from article PMC5704914 (Biochemistry, 2017).
